Data as given in patent publication US20080003218A1 (Genentech, published 2008).
Where two headings read alike, the source gives them in different places.

Tests used:
[1] = molecular target: T1, human IgE (human, UniProt P01854 1-546); assay: soluble receptor assay, biotin-IgE binding to coated FcεRI α-chain IgG chimera
[2] = molecular target: T1, human IgE; assay: as above; remark: listed apart in the source
[3] = molecular target: T1, human IgE; assay: equilibrium binding (Scatchard), 125I-IgE
[4] = molecular target: membrane IgE on U266B1 cells (human, UniProt P01854 1-546); assay: FACS on membrane IgE+ U266B1 cells
[5] = molecular target: IgE bound to FcεRI on human peripheral blood basophils (human, UniProt P01854 1-546; P12319 26-257); assay: cell-based or functional assay
Sequence of IgE bound to FcεRI on human peripheral blood basophils (P01854 whole entry, chain 1 of 2): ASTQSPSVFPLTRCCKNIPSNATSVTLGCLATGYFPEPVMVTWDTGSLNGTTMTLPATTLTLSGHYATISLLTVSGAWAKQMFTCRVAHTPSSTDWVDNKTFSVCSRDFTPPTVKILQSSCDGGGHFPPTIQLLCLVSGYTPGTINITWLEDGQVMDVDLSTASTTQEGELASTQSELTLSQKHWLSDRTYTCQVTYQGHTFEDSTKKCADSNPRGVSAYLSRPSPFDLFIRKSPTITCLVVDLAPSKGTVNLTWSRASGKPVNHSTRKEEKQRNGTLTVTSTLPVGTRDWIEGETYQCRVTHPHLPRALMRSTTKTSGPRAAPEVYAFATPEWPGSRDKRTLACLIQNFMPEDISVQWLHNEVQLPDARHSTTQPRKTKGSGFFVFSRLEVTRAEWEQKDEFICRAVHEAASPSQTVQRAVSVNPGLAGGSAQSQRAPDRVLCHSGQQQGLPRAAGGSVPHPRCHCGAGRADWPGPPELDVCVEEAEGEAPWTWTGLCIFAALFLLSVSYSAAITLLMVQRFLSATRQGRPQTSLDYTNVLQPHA
Sequence of IgE bound to FcεRI on human peripheral blood basophils (P12319 26-257, chain 2 of 2): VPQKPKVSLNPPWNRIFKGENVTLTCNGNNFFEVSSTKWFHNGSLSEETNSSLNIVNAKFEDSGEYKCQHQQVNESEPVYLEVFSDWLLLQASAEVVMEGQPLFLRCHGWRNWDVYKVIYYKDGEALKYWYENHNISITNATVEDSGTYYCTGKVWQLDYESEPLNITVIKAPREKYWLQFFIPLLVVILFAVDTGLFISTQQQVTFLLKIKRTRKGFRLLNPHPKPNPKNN

T1 sequence (P01854 whole entry): as the sequence (P01854 whole entry, chain 1 of 2) above
Sequence of membrane IgE on U266B1 cells (P01854 whole entry, one chain of several): as the sequence (P01854 whole entry, chain 1 of 2) above

B1: murine anti-human IgE monoclonal antibody MaE11 (antibody, V domains shown)
VH: DVQLQESGPGLVKPSQSLSLACSVTGYSITSGYSWNWIRQFPGNKLEWMGSITYDGSSNYNPSLKNRISVTRDTSQNQFFLKLNSATAEDTATYYCARGSHYFGHWHFAVWGAGTTVTVSS
VL: DIQLTQSPASLAVSLGQRATISCKASQSVDYDGDSYMNWYQQKPGQPPILLIYAASYLGSEIPARFSGSGSGTDFTLNIHPVEEEDAATFYCQQSHEDPYTFGAGTKLEIK
notes: Murine IgG1; immunogen U266 IgE; also called murine mAb MaE11
With B1 the IC50 [1] was 0.179 µg/mL, the “ratio F(ab)-X/F(ab)-2” value [1] was 0.03 ratio and the “ratio F(ab)-X/MaE11” value [1] was 1 ratio. The IC50 [2] was 0.449 µg/mL, the “ratio Variant X/IgG1-2” value [2] was 0.06 ratio and the “ratio Variant X/MaE11” value [2] was 1 ratio. For the same binder, the Kd [3] was 30 nM, the EC50 [4] was 0.15 µg/mL and the “PBL histamine release (EC50)” value [5] was greater than 100 µg/mL.
